What all share (assay): two-hybrid; fluorescence-based mammalian two-hybrid: bait EDC4 (or a fragment) fused to the SV40 NLS forms nuclear dots in transfected HEp-2 cells; prey scored by immunofluorescence for co-localisation in nuclear dots 24 h after transfection; three transfections, at least 30 cells each, mean +/- …
Assay [1] addresses NLS-EDC4 (full-length EDC4, amino acids 1–1437, fused to the NLS of SV40 T antigen).
The target is the same in assay [2]. This is another data set of the same source.
A further assay has as its target GFP-NLS-EDC4(935–1437).

With “NLS-LSm14a (SV40 T antigen NLS fused to LSm14a) (from UniProt Q8ND56 1-463) (natural protein)”, the percent of cells with both proteins in the nucleus that had the two in nuclear dots in assay [1] turned out to be 86%.

B1: Myc-PATL1(398–770) (domain or fragment)
chain: KDPYANLMLQREKDWVSKIQMMQLQSTDPYLDDFYYQNYFEKLEKLSAAEEIQGDGPKKERTKLITPQVAKLEHAYKPVQFEGSLGKLTVSSVNNPRKMIDAVVTSRSEDDETKEKQVRDKRRKTLVIIEKTYSLLLDVEDYERRYLLSLEEERPALMDDRKHKICSMYDNLRGKLPGQERPSDDHFVQIMCIRKGKRMVARILPFLSTEQAADILMTTARNLPFLIKKDAQDEVLPCLLSPFSLLLYHLPSVSITSLLRQLMNLPQSAATPALSNPHLTAVLQNKFGLSLLLILLSRGEDLQSSDPATESTQNNQWTEVMFMATRELLRIPQAALAKPISIPTNLVSLFSRYVDRQKLNLLETKLQLVQGIR
B1 registered a percent of cells expressing both proteins with the two co-localized in nuclear dots in assay [2] of 97%.

B2: CCHCR1-Myc (natural protein)
chain: MFPPSGSTGLIPPSHFQARPLSTLPRMAPTWLSDIPLVQPPGHQDVSERRLDTQRPQVTMWERDVSSDRQEPGRRGRSWGLEGSQALSQQAEVIVRQLQELRRLEEEVRLLRETSLQQKMRLEAQAMELEALARAEKAGRAEAEGLRAALAGAEVVRKNLEEGSQRELEEVQRLHQEQLSSLTQAHEEALSSLTSKAEGLEKSLSSLETRRAGEAKELAEAQREAELLRKQLSKTQEDLEAQVTLVENLRKYVGEQVPSEVHSQTWELERQKLLETMQHLQEDRDSLHATAELLQVRVQSLTHILALQEEELTRKVQPSDSLEPEFTRKCQSLLNRWREKVFALMVQLKAQELEHSDSVKQLKGQVASLQEKVTSQSQEQAILQRSLQDKAAEVEVERMGAKGLQLELSRAQEARRRWQQQTASAEEQLRLVVNAVSSSQIWLETTMAKVEGAAAQLPSLNNRLSYAVRKVHTIRGLIARKLALAQLRQESCPLPPPVTDVSLELQQLREERNRLDAELQLSARLIQQEVGRAREQGEAERQQLSKVAQQLEQELQQTQESLASLGLQLEVARQGQQESTEEAASLRQELTQQQELYGQALQEKVAEVETRLREQLSDTERRLNEARREHAKAVVSLRQIQRRAAQEKERSQELRRLQEEARKEEGQRLARRLQELERDKNLMLATLQQEGLLSRYKQQRLLTVLPSLLDKKKSVVSSPRPPECSASAPVAAAVPTRESIKGSLSVLLDDLQDLSEAISKEEAVCQGDNLDRCSSSNPQMSS
In the case of B2, the percent of cells expressing both proteins with the two co-localized in nuclear dots with GFP-NLS-EDC4(935–1437) stood at 96%.

B3: mCh-NLS-XRN1(1232–1706) (domain or fragment)
chain: EFCNIWQSLQGSGKMQYFQPTIQEKGAVLPQEISQVNQHHKSGFNDNSVKYQQRKHDPHRKFKEECKSPKAECWSQKMSNKQPNSGIENFLASLNISKENEVQSSHHGEPPSEEHLSPQSFAMGTRMLKEILKIDGSNTVDHKNEIKQIANEIPVSSNRRDEYGLPSQPKQNKKLASYMNKPHSANEYHNVQSMDNMCWPAPSQIPPVSTPVTELSRICSLVGMPQPDFSFLRMPQTMTVCQVKLSNGLLVHGPQCHSENEAKEKAALFALQQLGSLGMNFPLPSQVFANYPSAVPPGTIPPAFPPPTGWDHYGSNYALGAANIMPSSSHLFGSMPWGPSVPVPGKPFHHTLYSGTMPMAGGIPGGVHNQFIPLQVTKKRVANKKNFENKEAQSSQATPVQTSQPDSSNIVKVSPRESSSASLKSSPIAQPASSFQVETASQGHSISHHKSTPISSSRRKSRKLAVNFGVSKPSE
In turn, B3 came in with a percent of cells expressing both proteins with both in nuclear dots in assay [2] of 94%.

Source of the values: PMC9987799.
